Laboratory results taken from publication PMC5131608.

Target: Tt1219^33-236 (T. thermophilus HB8)
Experiment: SEC; size exclusion chromatography of Tt1219^33-236 alone (Supplementary Fig. 1)

- stoichiometry N: 2
Substance: Tt1219^33-236 (domain or fragment)
